Data taken from publication PMC5082641.

What was measured:
[1] = biological target: SpyTag-EGFP-SdyTag (Streptococcus pyogenes | Streptococcus dysgalactiae); test: covalent ligation read by SDS-PAGE and densitometry; step-wise reaction of dual-Tag constructs with SpyCatcher, 5 and 30 minutes; at 5 minutes aliquots given additional SpyCatcher or SdyCatcher DANG short for a further 25 minutes
[2] = biological target: SdyTag-EGFP (Streptococcus dysgalactiae); test: covalent ligation read by SDS-PAGE and densitometry; 50 uM Catcher with 65 uM SdyTag-EGFP (1.3 equivalents), 100 uM sodium phosphate buffer pH 7, 25°C, 40 minutes; quenched with SDS-PAGE loading buffer and boiled; yield with respect to the limiting Catcher; triplicates
[3] = biological target: SpyTag-EGFP (Streptococcus pyogenes); test: kinetics of covalent ligation by SDS-PAGE and densitometry; equimolar Catcher and Tag-EGFP (10 uM for SpyTag-EGFP; 50 uM for SdyTag-EGFP by S3 and S4 Figs), 100 uM sodium phosphate buffer pH 7, 25°C; second order rate constants from Catcher depletion; triplicates
[4] = biological target: SdyTag-EGFP (Streptococcus dysgalactiae); test: as above

Q: Which percent of products ligated twice [1] does the source give for SpyCatcher (domain or fragment) here?
A: < 10%

Q: What about the yield of ligated product after 40 minutes [2] of the same substance?
A: 7%

Q: And the second order rate constant of covalent ligation [3]?
A: 322 M⁻¹ s⁻¹

Q: And the second order rate constant of covalent ligation [4]?
A: 1 M⁻¹ s⁻¹
